# Measurements reported in patent US7105166.
# Residue numbers refer to the chain shown, from its start.
# B1: CTLA4/CD28Ig hybrid fusion protein HS4-B (Fc fusion, not shown: a dimerising Fc or GST)
# chain: NKILVKQSPMLVAYDNAYNLSCKYSYNLFSREFRASLHKGLDSAVEVCVVYGNYSQQLQVYSKTGFNCDGKLGNESVTFYLQNLYVNQTDIYFCKIEVMYPPPYLDNEKSNGTIIYVIDPEPCPDSD
# B2: CTLA4/CD28Ig hybrid fusion protein HS7 (Fc fusion, not shown: a dimerising Fc or GST)
# chain: NKILVKQSPMLVAYDNAYNLSCKYASPGKATEFRASLHKGLDSAVEVCVVYGNYSQQLQVYSKTGFNCDGKLGNESVTFYLQNLYVNQTDIYFCKIELMYPPPYYLGIGNGTQIYVIDPEPCPDSD
# B3: CTLA4/CD28Ig hybrid fusion protein HS8 (Fc fusion, not shown: a dimerising Fc or GST)
# chain: NKILVKQSPMLVAYDNAYNLSCKYASPGKATEFRASLHKGLDSAVEVCVVYGNYSQQLQVYSKTGFNCDGKLGNESVTFYLQNLYVNQTDIYFCKIELMYPPPYYLGIGNGTQIHVKGKHLCPS
# B4: CTLA4/CD28Ig hybrid fusion protein HS9 (Fc fusion, not shown: a dimerising Fc or GST)
# chain: B1 chain with S25A, Y26S, N27P, L28G, F29K, S30A, R31T
# Experiments:
# [1] = molecular target: B7 antigen (B7-1, CD80) expressed on cells (human) (UniProt P33681); assay: B7-1+ CHO cell enzyme immunoassay; binding activity relative to CTLA4Ig, from the concentrations giving the same A450
# Sequence of B7 antigen (B7-1, CD80) expressed on cells (human) (P33681 35-288): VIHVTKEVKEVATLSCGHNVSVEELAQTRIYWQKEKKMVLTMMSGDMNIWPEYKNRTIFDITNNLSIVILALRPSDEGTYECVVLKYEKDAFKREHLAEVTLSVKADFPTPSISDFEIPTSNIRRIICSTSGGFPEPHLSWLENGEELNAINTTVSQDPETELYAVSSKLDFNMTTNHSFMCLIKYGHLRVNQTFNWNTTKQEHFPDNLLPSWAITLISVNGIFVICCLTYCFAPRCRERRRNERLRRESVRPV
# [2] = molecular target: B7 antigen (B7-1, CD80) expressed on cells (human) (UniProt P33681); assay: enzyme immunoassay on fixed B7-1+ CHO cells
Binder,% B7 binding activity [1],% binding activity relative to CTLA4Ig [2],% of wild type binding [2]
B1,5%,–,–
B2,44%,44%,–
B3,56%,–,60%
B4,5%,–,–
